Source: patent publication US20100105864A1, “PROPHYLACTIC OR THERAPEUTIC AGENT FOR DIARRHEA” (priority 2007, published 2010)
Starred links: 1 amine or outer side, 2 acyl side, 3 side chain; linkers in the order of their positions; H or OH if unused. Non-standard residues stand in square brackets, D forms with d. Primed or numbered codes have the meaning given here. No end group written: not given here. *: point of attachment. GlyA = glycolic acid (-OCH2CO2H), esterified to the C-terminal carboxyl, O=C(O)CO*; GlyA″ = glycolic acid, ester to the C-terminal carboxyl, -OCH2CO2H, O=C(O)CO*; LacA″ = lactic acid residue, ester -OCH(CH3)CO2H at the C-terminus; Cys(S-allyl) = S-allylcysteine, C=CCSC[C@H](N[*:1])C(=O)[*:2]; Cys(S-Me) = S-methylcysteine, CSC[C@H](N[*:1])C(=O)[*:2]; γGlu = O=C(O)[C@H](CCC(=O)[*:2])N[*:1]; Tle = CC(C)(C)[C@H](N)C(=O)O; Orn = NCCC[C@H](N)C(=O)O; Abu = CC[C@H](N)C(=O)O; LacA = lactic acid

What follows are molecules tested against T1, human calcium receptor (Homo sapiens, UniProt P41180) (assay: Ca ion concentration-dependent Cl ionic current measurement in Xenopus laevis oocytes expressing the calcium receptor). Settings: D-amino acid added at 10 mM; oocytes clamped at -70 mV.
T1 construct: expressed in transfected cells; host or cells: Xenopus laevis oocytes injected with cRNA
T1 sequence (P41180 20-1078): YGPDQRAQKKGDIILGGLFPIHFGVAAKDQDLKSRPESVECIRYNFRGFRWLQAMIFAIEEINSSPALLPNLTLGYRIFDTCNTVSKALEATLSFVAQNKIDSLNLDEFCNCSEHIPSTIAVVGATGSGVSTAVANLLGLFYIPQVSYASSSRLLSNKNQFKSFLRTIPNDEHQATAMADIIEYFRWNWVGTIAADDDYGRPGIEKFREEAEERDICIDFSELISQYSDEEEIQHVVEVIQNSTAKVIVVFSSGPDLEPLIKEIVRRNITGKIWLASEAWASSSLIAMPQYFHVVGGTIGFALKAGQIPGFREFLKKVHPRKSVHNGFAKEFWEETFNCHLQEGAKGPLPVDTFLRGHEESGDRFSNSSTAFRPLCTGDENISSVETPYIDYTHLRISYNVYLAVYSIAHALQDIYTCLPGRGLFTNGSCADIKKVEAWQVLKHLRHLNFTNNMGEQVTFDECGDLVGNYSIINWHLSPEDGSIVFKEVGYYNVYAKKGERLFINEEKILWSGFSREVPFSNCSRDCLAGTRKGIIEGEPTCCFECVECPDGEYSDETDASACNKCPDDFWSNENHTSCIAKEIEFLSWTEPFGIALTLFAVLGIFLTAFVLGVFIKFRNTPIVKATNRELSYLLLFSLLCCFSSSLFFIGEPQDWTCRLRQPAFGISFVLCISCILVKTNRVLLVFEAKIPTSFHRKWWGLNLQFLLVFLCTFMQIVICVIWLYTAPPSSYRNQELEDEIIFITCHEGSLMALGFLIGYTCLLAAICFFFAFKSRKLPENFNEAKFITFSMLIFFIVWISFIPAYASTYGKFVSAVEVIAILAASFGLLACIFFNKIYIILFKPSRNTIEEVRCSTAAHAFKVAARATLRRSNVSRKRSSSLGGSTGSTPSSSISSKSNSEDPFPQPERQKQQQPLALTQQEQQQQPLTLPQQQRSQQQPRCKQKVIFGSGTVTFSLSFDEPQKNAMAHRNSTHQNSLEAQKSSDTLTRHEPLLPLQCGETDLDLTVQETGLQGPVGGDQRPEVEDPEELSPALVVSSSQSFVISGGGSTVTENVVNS
Type: cell-based
Procedure: For evaluation of the calcium receptor-activating action, a Ca ion concentration-dependent Cl ionic current measuring method using a Xenopus laevis oocyte expression system was used. If each activator is added to Xenopus laevis oocytes expressing the calcium receptor, intracellular Ca ions increase. Then, the Ca ion concentration-dependent Cl channel opens, and the intracellular current value changes as an ionic current. By measuring the change in the intracellular current value, whether the calcium receptor-activating action is present or not can be determined.
Specifically, the abdomen of Xenopus laevis was opened, and an egg batch was taken out and then treated with a 1% collagenase solution at 20° C. for 2 hours to obtain individual oocytes. Into the oocytes, 50 nl of 1 μg/μl receptor cRNA or 50 nl of sterilized water per oocyte were injected by using a micro glass capillary, and the oocytes were cultured at 18° C. for 2 to 3 days. For the culture, a solution obtained by adding 2 mM pyruvic acid, 10 U/ml penicillin, and 10 μg/ml streptomycin to the solution in Example 2 was used. After the culture, a test solution was added to the oocytes injected with cRNA or sterilized water. Electrophysiological measurement was performed by using an amplifier Geneclamp 500 (manufactured by Axon) and recording software AxoScope 9.0 (manufactured by Axon). The oocytes were membrane potential-clamped at −70 mV by the double electrode potential clamp method, and the intracellular current was measured via the Ca ion concentration-dependent Cl ion channel. The maximum value of the intracellular current was defined as the response current value. […]
The calcium receptor-activating action of L-amino acids was evaluated by using the method described in Example 13. That is, oocytes injected with cRNA of the calcium receptor or sterilized water were prepared, and membrane potential-clamped at −70 mV by the double electrode potential clamp method. To the potential-clamped oocytes, alanine (10 mM), arginine (10 mM), asparagine (10 mM), aspartic acid (10 mM), cysteine (10 mM), glutamine (10 mM), glutamic acid (10 mM), glycine (10 mM), histidine (10 mM), isoleucine (10 mM), leucine (10 mM), lysine (10 mM), methionine (10 mM), phenylalanine (10 mM), proline (10 mM), serine (10 mM), threonine (10 mM), tryptophan (10 mM), tyrosine (10 mM), valine (10 mM), ornithine (10 mM), taurine (10 mM), or hydroxyproline (10 mM) was added, and Ca ion concentration-dependent Cl response current was measured. […] As for the above-described amino acids, the activating action is reported in Proc. Natl. Acad. Sci. USA, Apr. 25, 2000, 97(9): 4814-9.
The calcium receptor-activating action of D-cysteine was evaluated by using the method described in Example 13. That is, oocytes injected with cRNA of the calcium receptor or sterilized water were prepared, and membrane potential-clamped at −70 mV by the double electrode potential clamp method. To the potential-clamped oocytes, D-cysteine (10 mM), L-cysteine (10 mM), D-tryptophan (10 mM), or L-tryptophan (10 mM) was added, and Ca ion concentration-dependent Cl response current was measured.
The calcium receptor-activating action of a peptide was evaluated by using the method described in Example 13. That is, oocytes injected with cRNA of the calcium receptor or sterilized water were prepared, and membrane potential-clamped at −70 mV by the double electrode potential clamp method.

Row | Molecule | calcium receptor-activating action (Ca ion concentration-dependent Cl response current)
1 | N[C@H](CS)C(=O)O [D-cysteine, reference compound] | definite calcium receptor-activating action

Same assay, conditions: L-amino acid added at 10 mM; oocytes clamped at -70 mV

Row | Molecule | calcium receptor-activating action (Ca ion concentration-dependent Cl response current)
2 | N[C@@H](Cc1c[nH]c2ccccc12)C(=O)O [tryptophan, reference compound] | definite calcium receptor-activating action
3 | N[C@@H](Cc1ccc(O)cc1)C(=O)O [tyrosine, reference compound] | definite calcium receptor-activating action
4 | N[C@@H](CS)C(=O)O [cysteine, reference compound] | definite calcium receptor-activating action
5 | N[C@@H](Cc1c[nH]cn1)C(=O)O [histidine, reference compound] | definite calcium receptor-activating action
6 | N[C@@H](Cc1ccccc1)C(=O)O [phenylalanine, reference compound] | definite calcium receptor-activating action

Same assay, conditions: peptide added at 50 μM

Row | Molecule | calcium receptor-activating action (Ca ion concentration-dependent Cl response current)
7 | N[C@@H](CCC(=O)N[C@@H](CSN=O)C(=O)NCC(=O)O)C(=O)O [γ-Glu-Cys(SNO)-Gly] | definite calcium receptor-activating action

Same assay, conditions: peptide added at 500 μM

Row | Molecule | calcium receptor-activating action (Ca ion concentration-dependent Cl response current)
8 | γ-Glu-Orn ([γGlu]-[Orn]) | definite calcium receptor-activating action

Same assay, conditions: peptide added at 1,000, 300, 100, 30, 10, 3, 1, 0.3 and 0.1 μM

Row | Molecule | Activity (lowest concentration at which current was detected)
9 | γ-Glu-Cys(S-Me)-Gly ([γGlu]-[Cys(S-Me)]-Gly) | 3 µM
10 | γ-Glu-Val-Glu ([γGlu]-Val-Glu) | 1,000 μM
11 | γ-Glu-Val-Lys ([γGlu]-Val-Lys) | 1,000 μM
12 | γ-Glu-Tau ([γGlu]-[Tau]) | 300 µM
13 | γ-Glu-Val-Asp | 1,000 μM
14 | γ-Glu-Val-Pro ([γGlu]-Val-Pro) | 30 µM
15 | γ-Glu-Val-Thr ([γGlu]-Val-Thr) | 1,000 μM
16 | γ-Glu-Val-Cys ([γGlu]-Val-Cys) | 10 µM
17 | γ-Glu-Val-Gln ([γGlu]-Val-Gln) | 10 µM
18 | γ-Glu-Val-Arg ([γGlu]-Val-Arg) | 1,000 μM
19 | γ-Glu-Val-Met ([γGlu]-Val-Met) | 1,000 μM
20 | γ-Glu-Val-Orn ([γGlu]-Val-[Orn]) | 100 µM
21 | γ-Glu-Val-Ser ([γGlu]-Val-Ser) | 30 µM
22 | γ-Glu-Abu-Gly ([γGlu]-[Abu]-Gly) | 3 µM
23 | γ-Glu-Val-Asn ([γGlu]-Val-Asn) | 30 µM
24 | γ-Glu-t-Leu ([γGlu]-[Tle]) | 100 µM
25 | γ-Glu-Val-Phe ([γGlu]-Val-Phe) | 30 µM
26 | γ-Glu-γ-Glu-Val ([γGlu]-[γGlu]-Val) | 1,000 μM
27 | γ-Glu-Gly-Gly ([γGlu]-Gly-Gly) | 30 µM
28 | γ-Glu-Val-Val ([γGlu]-Val-Val) | 1,000 μM
29 | γ-Glu-Val-His ([γGlu]-Val-His) | 100 µM
30 | γ-Glu-Ser-Gly ([γGlu]-Ser-Gly) | 30 µM
31 | γ-Glu-Cys(S-allyl)-Gly ([γGlu]-[Cys(S-allyl)]-Gly) | 100 µM

The molecules below were run against T2, human calcium receptor (human, UniProt P41180 20-1078) (assay: cell-based or functional assay). Settings: not given.
T2 sequence (looked up): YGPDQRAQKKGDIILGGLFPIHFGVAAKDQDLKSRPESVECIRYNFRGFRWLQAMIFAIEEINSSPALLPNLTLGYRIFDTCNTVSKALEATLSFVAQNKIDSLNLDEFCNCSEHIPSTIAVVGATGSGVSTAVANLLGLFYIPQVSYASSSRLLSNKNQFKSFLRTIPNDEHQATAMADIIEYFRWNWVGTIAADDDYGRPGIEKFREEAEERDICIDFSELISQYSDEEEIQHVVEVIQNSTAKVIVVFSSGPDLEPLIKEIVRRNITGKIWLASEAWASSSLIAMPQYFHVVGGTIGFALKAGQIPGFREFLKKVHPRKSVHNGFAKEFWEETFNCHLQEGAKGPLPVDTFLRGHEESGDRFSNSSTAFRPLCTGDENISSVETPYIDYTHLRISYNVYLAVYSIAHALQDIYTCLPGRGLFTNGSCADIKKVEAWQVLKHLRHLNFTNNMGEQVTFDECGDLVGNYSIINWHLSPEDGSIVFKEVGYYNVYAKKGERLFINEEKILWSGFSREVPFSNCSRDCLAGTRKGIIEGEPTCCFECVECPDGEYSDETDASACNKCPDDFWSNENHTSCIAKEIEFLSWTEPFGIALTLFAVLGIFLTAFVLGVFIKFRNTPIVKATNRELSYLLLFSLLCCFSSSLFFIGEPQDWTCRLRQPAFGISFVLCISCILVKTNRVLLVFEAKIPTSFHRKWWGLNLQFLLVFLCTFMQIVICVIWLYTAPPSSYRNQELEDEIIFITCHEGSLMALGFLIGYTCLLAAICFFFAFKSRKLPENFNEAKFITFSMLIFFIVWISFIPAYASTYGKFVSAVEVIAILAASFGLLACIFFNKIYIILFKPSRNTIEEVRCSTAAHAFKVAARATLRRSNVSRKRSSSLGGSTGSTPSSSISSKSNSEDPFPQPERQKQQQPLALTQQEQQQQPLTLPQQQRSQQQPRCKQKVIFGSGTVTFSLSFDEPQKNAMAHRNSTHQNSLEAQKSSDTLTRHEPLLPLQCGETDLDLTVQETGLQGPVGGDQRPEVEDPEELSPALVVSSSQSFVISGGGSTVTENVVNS

Row | Molecule | EC50, calcium imaging (Calcium 3 assay kit, FLEXSTATION) in HEK 293 cells expressing human CaSR [nM]
32 | [γGlu]-[Abu]-{LacA″} [γ-Glu-Abu-LacA] | 102
33 | [γGlu]-Val-LacA [γ-Glu-Val-LacA] | 57
34 | [γGlu]-Val-GlyA [γ-Glu-Val-GlyA] | 140
35 | [γGlu]-[Tle]-{GlyA″} [γ-Glu-t-Leu-GlyA] | 50
36 | [γGlu]-[Tle]-{LacA″} [γ-Glu-t-Leu-LacA] | 38
